The text below walks through data of patent US20230053129A1.

The target in this test is Shiga toxin 2 (UniProt P09385).
Chain of Shiga toxin 2 (P09385 23-319, chain 1 of 2): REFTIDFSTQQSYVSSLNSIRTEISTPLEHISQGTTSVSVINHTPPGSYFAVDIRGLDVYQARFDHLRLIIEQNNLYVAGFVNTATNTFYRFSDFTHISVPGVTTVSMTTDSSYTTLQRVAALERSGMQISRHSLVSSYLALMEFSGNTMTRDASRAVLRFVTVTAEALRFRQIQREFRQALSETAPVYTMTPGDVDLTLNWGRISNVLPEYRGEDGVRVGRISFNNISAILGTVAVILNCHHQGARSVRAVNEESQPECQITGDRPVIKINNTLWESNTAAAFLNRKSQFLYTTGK
Chain of Shiga toxin 2 (P09386 20-89, chain 2 of 2, further chain): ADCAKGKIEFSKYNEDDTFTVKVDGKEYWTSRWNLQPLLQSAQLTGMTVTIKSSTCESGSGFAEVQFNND

With “NAB815 (OA-Dab-Thr-DThr-cy[Dab-Dab-DPhe-Leu-Abu-Dab-Thr-]) (peptide)”, the Kd was determined as 5 nM and the maximum reduction of fluorescence emission is 10%.

The Kd is the free concentration of one partner at which half of the binding sites on the other are occupied at equilibrium, for simple one-to-one binding.
